# Assay results as given in patent publication US10941182 (Amgen, dated 2021).
# Starred links: 1 amine or outer side, 2 acyl side, 3 side chain; linkers in the order of their positions; H or OH if unused. Non-standard residues stand in square brackets, D forms with d. No end group written: not given here. *: point of attachment. dBip = N[C@H](Cc1ccc(-c2ccccc2)cc1)C(=O)O; Oic = O=C(O)[C@@H]1C[C@@H]2CCCC[C@@H]2N1; Phe(4-Cl) = N[C@@H](Cc1ccc(Cl)cc1)C(=O)O; Phe(4-I) = N[C@@H](Cc1ccc(I)cc1)C(=O)O; γGlu = O=C(O)[C@H](CCC(=O)[*:2])N[*:1]; d1Nal = N[C@H](Cc1cccc2ccccc12)C(=O)O; NMeR = CN[C@@H](CCCNC(=N)N)C(=O)O; Tridecanoyl = CCCCCCCCCCCCC(=O)*; hArg = N=C(N)NCCCC[C@H](N)C(=O)O; Cha = N[C@@H](CC1CCCCC1)C(=O)O; NMeL = CN[C@@H](CC(C)C)C(=O)O; code O = not defined here; Nle = CCCC[C@H](N)C(=O)O; Orn = NCCC[C@H](N)C(=O)O; AEEA = NCCOCCOCC(=O)O; Aib = CC(C)(N)C(=O)O; BLeu = β-leucine; Sar = CNCC(=O)O
# T1: rat APJ receptor (rat, UniProt Q9JHG3 1-377)
# T1 sequence (looked up): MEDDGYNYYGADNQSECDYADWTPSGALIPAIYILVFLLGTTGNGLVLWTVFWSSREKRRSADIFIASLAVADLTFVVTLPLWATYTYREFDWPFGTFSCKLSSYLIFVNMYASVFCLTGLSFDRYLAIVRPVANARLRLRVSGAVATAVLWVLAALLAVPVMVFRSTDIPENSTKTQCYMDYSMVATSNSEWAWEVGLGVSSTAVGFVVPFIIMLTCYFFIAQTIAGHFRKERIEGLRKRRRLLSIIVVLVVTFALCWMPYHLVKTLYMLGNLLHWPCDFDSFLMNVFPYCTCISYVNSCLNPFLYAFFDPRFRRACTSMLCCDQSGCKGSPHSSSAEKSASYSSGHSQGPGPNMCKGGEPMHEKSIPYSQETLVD
# T2: human APJ receptor (human, UniProt P35414 1-380)
# T2 sequence (looked up): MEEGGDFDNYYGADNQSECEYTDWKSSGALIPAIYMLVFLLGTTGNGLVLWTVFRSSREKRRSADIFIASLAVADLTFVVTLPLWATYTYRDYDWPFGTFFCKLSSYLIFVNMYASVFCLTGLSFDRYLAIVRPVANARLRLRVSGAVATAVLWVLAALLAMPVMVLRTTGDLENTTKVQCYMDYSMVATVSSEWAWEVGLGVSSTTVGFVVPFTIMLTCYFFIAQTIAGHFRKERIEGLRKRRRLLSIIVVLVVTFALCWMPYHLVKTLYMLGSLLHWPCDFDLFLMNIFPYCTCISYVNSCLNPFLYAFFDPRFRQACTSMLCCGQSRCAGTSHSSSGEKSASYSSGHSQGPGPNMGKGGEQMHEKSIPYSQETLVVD
# B1: apelin polypeptide SEQ ID NO: 673 (peptide)
# peptide: [code O]F[hArg][NMeR]Q[NMeR]P[NMeR][Cha]SHKG[Oic][Nle]P[Phe(4-Cl)]
# modifications: reading uncertain
# B2: apelin polypeptide SEQ ID NO: 285 (peptide)
# peptide: Tridecanoyl-[γGlu][AEEA][AEEA]Q[dR]P[NMeR][Cha]SHKG[Oic][Nle][d1Nal]-OH
# SMILES: CCCCCCCCCCCCC(=O)N[C@@H](CCC(=O)NCCOCCOCC(=O)NCCOCCOCC(=O)N[C@@H](CCC(N)=O)C(=O)N[C@H](CCCNC(=N)N)C(=O)N1CCC[C@H]1C(=O)N(C)[C@@H](CCCNC(=N)N)C(=O)N[C@@H](CC1CCCCC1)C(=O)N[C@@H](CO)C(=O)N[C@@H](Cc1c[nH]cn1)C(=O)N[C@@H](CCCCN)C(=O)NCC(=O)N1[C@H](C(=O)N[C@@H](CCCC)C(=O)N[C@H](Cc2cccc3ccccc23)C(=O)O)C[C@@H]2CCCC[C@@H]21)C(=O)O
# B3: apelin polypeptide SEQ ID NO: 280 (peptide)
# peptide: Tridecanoyl-[γGlu][AEEA][AEEA][dQ][NMeR]P[dR][Cha]SHKG[Oic][Nle]P[Phe(4-Cl)]-OH
# SMILES: CCCCCCCCCCCCC(=O)N[C@@H](CCC(=O)NCCOCCOCC(=O)NCCOCCOCC(=O)N[C@H](CCC(N)=O)C(=O)N(C)[C@@H](CCCNC(=N)N)C(=O)N1CCC[C@H]1C(=O)N[C@H](CCCNC(=N)N)C(=O)N[C@@H](CC1CCCCC1)C(=O)N[C@@H](CO)C(=O)N[C@@H](Cc1c[nH]cn1)C(=O)N[C@@H](CCCCN)C(=O)NCC(=O)N1[C@H](C(=O)N[C@@H](CCCC)C(=O)N2CCC[C@H]2C(=O)N[C@@H](Cc2ccc(Cl)cc2)C(=O)O)C[C@@H]2CCCC[C@@H]21)C(=O)O
# B4: apelin polypeptide SEQ ID NO: 21 (peptide)
# peptide: Ac-[hArg][hArg]Q[hArg][Oic][dR][NMeL]SHKG[Oic][Phe(4-I)]P[dBip]-OH
# SMILES: CC(=O)N[C@@H](CCCCNC(=N)N)C(=O)N[C@@H](CCCCNC(=N)N)C(=O)N[C@@H](CCC(N)=O)C(=O)N[C@@H](CCCCNC(=N)N)C(=O)N1[C@H](C(=O)N[C@H](CCCNC(=N)N)C(=O)N(C)[C@@H](CC(C)C)C(=O)N[C@@H](CO)C(=O)N[C@@H](Cc2c[nH]cn2)C(=O)N[C@@H](CCCCN)C(=O)NCC(=O)N2[C@H](C(=O)N[C@@H](Cc3ccc(I)cc3)C(=O)N3CCC[C@H]3C(=O)N[C@H](Cc3ccc(-c4ccccc4)cc3)C(=O)O)C[C@@H]3CCCC[C@@H]32)C[C@@H]2CCCC[C@@H]21
# B5: apelin polypeptide SEQ ID NO: 670 (peptide)
# peptide: [Orn]F[hArg][NMeR]Q[hArg]P[hArg][Cha]SHKG[Oic][Nle]P[Phe(4-Cl)]
# B6: apelin polypeptide SEQ ID NO: 671 (peptide)
# peptide: [Orn]F[hArg][hArg]Q[NMeR]P[hArg][Cha]SHKG[Oic][Nle]P[Phe(4-Cl)]
# B7: apelin polypeptide SEQ ID NO: 677 (peptide)
# peptide: [Orn]F[hArg][hArg]Q[hArg][Aib][hArg][Cha]SHKG[Oic][Nle]P[Phe(4-Cl)]
# B8: apelin polypeptide SEQ ID NO: 278 (peptide)
# peptide: Tridecanoyl-[γGlu][AEEA][AEEA][BLeu][hArg]P[dR][Cha]SHKG[Oic][Nle]P[Phe(4-Cl)]-OH
# B9: apelin polypeptide SEQ ID NO: 676 (peptide)
# peptide: [Orn]F[hArg][hArg]Q[hArg][Sar][hArg][Cha]SHKG[Oic][Nle]P[Phe(4-Cl)]
# B10: apelin polypeptide SEQ ID NO: 675 (peptide)
# peptide: Q[hArg]P[NMeR][Cha]SHKG[Oic][Nle]P[Phe(4-Cl)]
# Molecular target: T1, rat APJ receptor
# Experiment: cell-based or functional assay
row,EC50 Rat APJ Receptor [nM],Binder
1,1.34,B1
2,122,B2
3,4.47,B3
4,1.8,B4
5,0.254,B5
6,0.387,B6
7,3.48,B7
8,14.5,B8
9,0.84,B9
10,0.189,B10

# Molecular target: T2, human APJ receptor
# Experiment: cell-based or functional assay
row,EC50 Human APJ Receptor [nM],Binder
1,1.34,B1
2,8.22,B2
3,2.04,B3
4,0.57,B4
5,0.131,B5
6,0.162,B6
7,3.5,B7
8,10.1,B8
9,0.762,B9
10,0.159,B10
